Results published in US20200317803A1, “ANTI-CD73, ANTI-PD-L1 ANTIBODIES AND CHEMOTHERAPY FOR TREATING TUMORS” (MEDIMMUNE, LLC, priority 2019, published 2020).
Entries after “also recorded” stand apart in the source; their conditions may differ.

Columns and labels:
[1] = system: EGFRm NSCLC; conditions: ATLANTIC trial, comparison for EGFRm NSCLC; cited from earlier work
[2] = GLP 5-week repeat IV bolus dose toxicity study in CD-1 mice; type: in vivo
Procedure: (§1) Mouse and cynomolgus monkey were selected as pharmacologically relevant species for evaluation of the toxicity of oleclumab. […] Systemic and local toxicities of oleclumab were evaluated in Good Laboratory Practice (GLP) toxicity studies in CD-1 mice (5-week, repeat intravenous [IV] bolus dose, once every 4 days, total 9 doses) at 0 mg/kg, 100 mg/kg or 200 mg/kg and cynomolgus monkeys (5-week, repeat IV 30-minute infusion dose, once weekly, total 5 doses) at 0 mg/kg, 30.5 mg/kg, 103.7 or 300.7 mg/kg.

[3] = GLP 5-week repeat IV infusion toxicity study in cynomolgus monkeys; type: in vivo
Procedure: as §1

[4] = system: human tissue panel
[5] = system: blood or peripheral blood mononuclear cell from healthy donors; assay: human in vitro cytokine release assays; type: cell-based; conditions: in solution or immobilized on plastic wells by dry-coating
Procedure: The ability of oleclumab (alone or in combination with durvalumab) to induce cytokine release was evaluated in human in vitro assays using blood or peripheral blood mononuclear cell from healthy donors.

[6] = system: exogenous antigen (KLH) response; assay: single dose cynomolgus monkey study: exogenous antigen (KLH) response; type: in vivo, cynomolgus monkeys; conditions: single IV 1, 10 or 107.8 mg/kg
Procedure: (§2) Five male cynomolgus monkeys were administered a single IV bolus dose of oleclumab at a dose of 0 mg/kg, 1 mg/kg, 10 mg/kg or 107.8 mg/kg. Serum was collected prior to the first dose at 0.08, 0.5, 2, 8 and 24 hours and 2, 3, 5, 7, 10, 14, 21, 28 and 35 days post dosing.
To determine immune modulation, the exogenous antigen (KLH) response was measured. The exogenous antigen (KLH) response was determined by first immunizing the monkeys on day 1 with adjuvant free KLH. KLH T cell-dependent antibody response (TDAR) was conducted on days 7, 8, 11, 15, 22, 29, and 36. Ex vivo KLH stimulation of PBMC IFN-γ and IL-2 ELISPOT was determined on days 1, 4, 8, 7, 15, and 22.

[7] = system: endogenous pathogen response (EBV, CMV); assay: single dose cynomolgus monkey study: endogenous pathogen response; type: in vivo, cynomolgus monkeys; conditions: single IV 1, 10 or 107.8 mg/kg
Procedure: as §2
The endogenous pathogen response was also investigated by endogenous pathogen verification. Endogenous pathogen antibodies were measured using chemiluminescent ELISA on days 1, 8, 14, 15, and 29 and endogenous pathogen T cell IFN-γ ELISPOT was measured on days −14 and 29. LCV (monkey homologue of EBV) was detectable at low levels in most cynomolgus monkeys (FIG. 4).

[8] = molecular target: T1, CD73 (Homo sapiens, UniProt P21589); assay: pharmacokinetic/pharmacodynamic model and human dose prediction; conditions: determined from tumor suppression data in syngeneic mice
T1 construct: from tissue; host or cells: patients' serum, peripheral T cells and tumour biopsies
T1 sequence (P21589 27-549): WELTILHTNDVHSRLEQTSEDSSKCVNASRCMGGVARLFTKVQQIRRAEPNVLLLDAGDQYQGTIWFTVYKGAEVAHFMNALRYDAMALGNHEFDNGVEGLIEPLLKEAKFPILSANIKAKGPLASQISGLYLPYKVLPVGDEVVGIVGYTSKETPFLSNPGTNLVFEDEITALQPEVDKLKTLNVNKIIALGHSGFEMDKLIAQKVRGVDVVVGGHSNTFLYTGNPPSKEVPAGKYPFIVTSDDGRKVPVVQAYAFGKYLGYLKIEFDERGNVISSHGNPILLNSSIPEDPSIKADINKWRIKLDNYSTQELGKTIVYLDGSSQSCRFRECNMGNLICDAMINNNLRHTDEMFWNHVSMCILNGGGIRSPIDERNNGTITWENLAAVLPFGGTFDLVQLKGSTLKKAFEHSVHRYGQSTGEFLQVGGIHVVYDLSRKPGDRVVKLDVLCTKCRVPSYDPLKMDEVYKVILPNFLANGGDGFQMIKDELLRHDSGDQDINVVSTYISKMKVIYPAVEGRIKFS
From the text: A two-compartment model with linear and target-mediated drug disposition clearance was used to adequately describe the MEDI9447 serum concentration profiles. This model was used to describe the monkey pharmacokinetic data and then resulting parameters were allometrically scaled to humans to predict doses using simulation. (See Example 2.)
FIGS. 6A and 6B show cynomolgus pharmacokinetic modeling and human dose prediction. Cynomolgus serum MEDI9447 concentration profiles (FIG. 6A) were described adequately all three different dose levels by a non-linear model shown schematically in (FIG. 5). Following allometric scaling of the pharmacokinetics parameters from this model, human serum concentration profiles were simulated (FIG. 6B). […] (See Example 2.)
Oleclumab dose selection was based on nonclinical data and clinical safety margins based on nonclinical safety data as described above for mice and monkeys. The pharmacologically driven starting dose level of 5 mg/kg oleclumab was anticipated to have 98% to 91% saturation of CD73 in the first dosing interval (peak and trough, respectively). […] The dose-escalation scheme in this study was designed to achieve higher and more sustained suppression of CD73 target, while maintaining adequate safety margins. […]

[9] = Phase 1 study, pharmacokinetics and immunogenicity of oleclumab; type: in vivo; conditions: human
Procedure: (§3) Safety was assessed by the presence of adverse events (AEs), serious adverse events (SAEs), DLTs, and changes from baseline in laboratory parameters, vital signs, and electrocardiogram results. The endpoints for assessment of antitumor activity included objective response (OR), disease control (DC), duration of response (DoR), progression-free survival (PFS), and overall survival (OS). RECIST v1.1 was used for assessment of tumor response. Pharmacokinetic parameters included, but were not limited to, maximum observed concentration, area under the concentration time curve, clearance, and terminal half-life. The endpoints for assessment of immunogenicity of oleclumab and durvalumab included the number and percentage of subjects who developed detectable anti-drug antibodies and the endpoints for assessment of pharmacodynamic activity included assessment of target expression (e.g., CD73, PD-L1) in tumor biopsy specimens.
(§4) In the oleclumab monotherapy dose-escalation arm, sequential cohorts of 3 to 6 subjects each received 1 of 4 dose levels of oleclumab (5, 10, 20, or 40 mg/kg) via IV infusion Q2W unless the maximum tolerated dose (MTD) was reached before all dose-escalation cohorts were completed (FIG. 8). In the oleclumab/durvalumab combination therapy dose-escalation arm, sequential cohorts of 3 to 6 subjects each received 1 of 4 dose levels of oleclumab (5, 10, 20, or 40 mg/kg) and a single dose level of 10 mg/kg durvalumab via IV infusion Q2W, unless the MTD was reached before all dose-escalation cohorts were completed (FIG. 8). If the MTD of oleclumab was exceeded at the 5 mg/kg dose level in the monotherapy or combination therapy arm, a lower dose level of 2 mg/kg oleclumab was explored in that arm.
The following PK data is based on a total of 97 subjects following treatment with oleclumab 5 to 40 mg/kg Q2W administered either as monotherapy (n=40) or in combination with durvalumab at 10 mg/kg Q2W (n=57). […] Serum exposures were similar when oleclumab was administered either alone or in combination with durvalumab.

[10] = molecular target: T1, CD73; assay: Phase 1 study, pharmacodynamics (soluble, T cell and tumor CD73); type: in vivo; conditions: for CD73 surface expression on peripheral T cells (MFI, percent CD73+ CD4 and CD8 cells): human
Procedure: as §3, §4

[11] = cynomolgus monkey, in vivo, 300.7 mg/kg

durvalumab: antibody that selectively binds PD-L1 and blocks the binding of PD-L1 to the PD-1 and CD80 receptors
ORR, durvalumab monotherapy [1]: 9.8%

oleclumab: human immunoglobulin G1 lambda mAb that selectively binds to and inhibits the ectonucleotidase activity of CD73; VL SEQ ID NO: 1, VH SEQ ID NO: 2
no-observed-adverse-effect level (NOAEL) ([2]; CD-1 mice, highest dose tested): 200 mg/kg/dose | AUC0-96hr ([2]; mouse, in vivo, 200 mg/kg): 229,000 μg·hr/mL | Cmax ([2]; mouse, in vivo, 200 mg/kg): 6,200 μg/mL | effects on safety pharmacology endpoints (ECGs, blood pressure, behavioral examinations) ([3]; cynomolgus monkey, in vivo): no oleclumab-related effects | AUC0-168.5hr [3, 11]: 834,000 μg·hr/mL | Cmax [3, 11]: 11,000 μg/mL | no-observed-adverse-effect level (NOAEL) ([3]; cynomolgus monkeys, highest dose tested): 300.7 mg/kg/dose | tissue cross reactivity staining [4]: staining with oleclumab was observed in multiple cell types | cytokine release [5]: did not induce cytokine release | T cell responses to ex vivo KLH stimulation (IFN-γ, IL-2 ELISPOT of PBMC) [6]: did not vary with oleclumab treatment; also recorded: did not increase | anti-KLH IgM and IgG antibody responses (KLH TDAR) [6]: did not show dose-dependent increase; also recorded: did not enhance | responses to exogenous antigen (KLH) [6]: did not enhance responses | IgG titers to EBV gp125 and CMV gB [7]: did not vary with oleclumab treatment | T cell responses to EBV BZLF1 and inactivated human CMV [7]: did not vary consistently with oleclumab treatment | serum exposure target [8]: 52 µg/mL | anti-drug antibodies (ADAs) [9]: No ADAs were detected | estimated effective half-life in the dosing duration [9]: ~13 days | serum concentration expected to saturate >99% CD73 [9]: above 40 μg/mL | serum exposures alone versus in combination with durvalumab ([9]; 5 to 40 mg/kg Q2W): similar | increase of Ctrough with dose ([9]; from oleclumab 5 to 10 mg/kg): more than proportional | increase of Ctrough with dose ([9]; from oleclumab 10 to 40 mg/kg): approximately dose proportional | PK linearity at lowest dose ([9]; oleclumab 5 mg/kg Q2W, monotherapy and combination cohorts): nonlinear PK | PK linearity at higher doses ([9]; oleclumab 10 mg/kg and higher Q2W): Linear PK | CD73 staining tumor cells by IHC ([10]; 40 mg/kg dose, 20 days after treatment initiation): decrease in CD73 staining tumor cells | total CD4 and CD8 cells ([10]; human peripheral blood, across all doses): without a concomitant decrease | CD73 enzymatic activity in tumor microenvironment ([10]; human tumor staining): inhibited CD73 enzymatic activity | CD73 surface expression on peripheral T cells (MFI, percent CD73+ CD4 and CD8 cells) ([10]; across all doses): decreased CD73 on peripheral T cells | CD73 surface expression on peripheral T cells (MFI, percent CD73+ CD4 and CD8 cells) ([10]; across all doses, listed as Oleclumab): decreased CD73 surface expression | free serum soluble CD73 levels ([10]; majority of subjects at all times after the first dose, limit of detection): < 0.25 ng/mL | patients with decreased tumoral CD73 expression ([10]; oleclumab alone, patients who expressed >5% 2+/3+ CD73 at baseline): 5/9 | CD8+ TILs ([10]; samples with decreased tumoral CD73): increasing CD8+ TILs in all 5 samples
